Test results published in PMC2172558 (The Journal of Cell Biology, 2004).

Molecular target: T1, recombinant, purified Xenopus β-catenin (Xenopus, UniProt P26233 1-781)
T1 sequence: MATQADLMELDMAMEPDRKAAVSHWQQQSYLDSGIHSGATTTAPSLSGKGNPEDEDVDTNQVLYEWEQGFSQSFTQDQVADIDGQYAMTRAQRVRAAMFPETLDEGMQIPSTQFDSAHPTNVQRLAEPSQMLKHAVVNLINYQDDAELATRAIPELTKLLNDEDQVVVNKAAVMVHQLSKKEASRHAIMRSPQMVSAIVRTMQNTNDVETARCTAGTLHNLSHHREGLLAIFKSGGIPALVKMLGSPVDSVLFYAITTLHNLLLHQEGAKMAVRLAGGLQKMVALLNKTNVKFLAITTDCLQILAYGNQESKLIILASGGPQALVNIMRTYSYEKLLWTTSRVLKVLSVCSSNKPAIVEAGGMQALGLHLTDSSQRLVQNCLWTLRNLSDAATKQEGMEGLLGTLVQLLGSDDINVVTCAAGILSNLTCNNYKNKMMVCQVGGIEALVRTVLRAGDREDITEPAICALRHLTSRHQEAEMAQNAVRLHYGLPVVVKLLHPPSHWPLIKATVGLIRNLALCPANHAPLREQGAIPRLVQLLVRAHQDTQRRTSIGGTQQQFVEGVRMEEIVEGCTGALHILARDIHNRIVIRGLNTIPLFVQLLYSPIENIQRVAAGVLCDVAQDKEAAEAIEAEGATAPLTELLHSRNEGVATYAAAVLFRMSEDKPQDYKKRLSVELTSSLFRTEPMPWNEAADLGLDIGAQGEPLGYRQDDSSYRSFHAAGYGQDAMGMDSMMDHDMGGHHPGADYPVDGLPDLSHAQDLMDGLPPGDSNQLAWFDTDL
Test: pull-down

binding result: binds
B1: Xenopus C-cadherin cytoplasmic domain GST fusion protein (domain or fragment)
chain: not shown
